Tests used:
[1] = biological target: murine USP18^IBB-1-USP7, His6-tagged (mouse) (UniProt Q9WTV6)
[2] = biological target: ISG15 (Mus musculus) (UniProt Q64339); test: microscale thermophoresis; details: cited from earlier work
Chain of ISG15 (Mus musculus) (Q64339 1-155): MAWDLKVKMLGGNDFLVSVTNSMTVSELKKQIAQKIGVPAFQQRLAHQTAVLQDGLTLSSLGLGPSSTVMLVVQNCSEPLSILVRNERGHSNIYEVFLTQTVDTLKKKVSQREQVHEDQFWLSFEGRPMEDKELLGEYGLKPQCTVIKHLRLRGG

Substance | catalytic activity towards ISG15-FP, percent of wild type (% of wt activity) [1] | Kd [2] [µM]
mouse ISG15 (residues 1-155, C76S) (from UniProt Q64339 1-155) (natural protein) | 0.5 | 
USP18 (from UniProt Q9WTV6) |  | 1.3
